According to paper PMC5398546:

Assays:
[1] = target: wild-type human serotonin 5HT1B receptor (residues 34-390) with C-terminal His10 (human) (UniProt P28222); assay: fluorescent saturation binding assay (FSBA); DDM-solubilised donitriptan-bound His-tagged 5HT1BR immobilised on Ni2+-coated 96-well plate; GFP-mini-G protein 0 to 5 μM, 90 min on ice; specific binding = minus the GFP-mini-Gs condition; apparent KD, one-site fit
[2] = target: C-terminally truncated human A2AR (residues 1-317, N154A, C-terminal His10) (human) (UniProt P29274); assay: fluorescent saturation binding assay (FSBA); DDM-solubilised His-tagged β1AR or A2AR immobilised on Ni2+-coated 96-well plate; GFP-mini-Gs 0 to 2.8 μM, 90 min on ice; specific binding = agonist minus inverse agonist condition; apparent KD, one-site fit
Chain of C-terminally truncated human A2AR (residues 1-317, N154A, C-terminal His10) (human) (P29274 1-317 N154A): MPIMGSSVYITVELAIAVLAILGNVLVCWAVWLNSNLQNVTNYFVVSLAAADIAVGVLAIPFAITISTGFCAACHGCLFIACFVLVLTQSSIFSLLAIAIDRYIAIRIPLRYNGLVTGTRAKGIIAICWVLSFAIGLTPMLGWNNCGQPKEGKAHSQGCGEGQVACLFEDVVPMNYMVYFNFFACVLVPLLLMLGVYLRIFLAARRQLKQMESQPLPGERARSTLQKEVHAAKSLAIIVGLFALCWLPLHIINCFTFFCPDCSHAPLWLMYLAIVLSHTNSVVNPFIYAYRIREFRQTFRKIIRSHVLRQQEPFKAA

Chain of wild-type human serotonin 5HT1B receptor (residues 34-390) with C-terminal His10 (human) (P28222 34-390): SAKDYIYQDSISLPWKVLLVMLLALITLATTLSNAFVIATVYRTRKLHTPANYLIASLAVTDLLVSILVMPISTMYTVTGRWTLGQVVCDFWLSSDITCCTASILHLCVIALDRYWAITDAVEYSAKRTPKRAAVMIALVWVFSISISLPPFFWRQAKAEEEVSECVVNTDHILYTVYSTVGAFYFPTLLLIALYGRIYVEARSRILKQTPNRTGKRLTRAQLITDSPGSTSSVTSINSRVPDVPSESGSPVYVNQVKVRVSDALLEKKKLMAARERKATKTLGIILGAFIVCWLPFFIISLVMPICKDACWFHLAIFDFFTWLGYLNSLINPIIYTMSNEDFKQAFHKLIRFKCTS

| Substance | Kd [1] [nM] | Kd [2] [nM] |
| --- | --- | --- |
| GFP-mini-Go1 (construct 12) (domain or fragment) | 180 |  |
| GFP-mini-Gs (domain or fragment) |  | 430 |
| GFP-mini-Gs/i1 (construct 43) (domain or fragment) | 390 |  |
